The text below walks through data of patent US9993536B2, “Peptides and combination of peptides and scaffolds for use in immunotherapy against renal cell carcinoma (RCC) and other cancers” (immatics biotechnologies GmbH, priority 2015, dated 2018).

The test has as its target HLA-A*02:01 (Homo sapiens, UniProt P04439, D140Y/D185E/D98H/E176V/E277Q/G131W/G231S/I119V/I121R/I166T/I218V/L300P/L318F/N151K/N90K/P208A/P217A/Q86G/Q94H/R138H/R169H/T345S). The test is described as follows: MHC binding assay (UV-ligand exchange, beta2m ELISA). The conditions noted are these: peptide exchange yield, HLA-A*02:01, UV-ligand exchange. The source says:
Candidate peptides for T cell based therapies according to the present invention were further tested for their MHC binding capacity (affinity). The individual peptide-MHC complexes were produced by UV-ligand exchange, where a UV-sensitive peptide is cleaved upon UV-irradiation, and exchanged with the peptide of interest as analyzed. Only peptide candidates that can effectively bind and stabilize the peptide-receptive MHC molecules prevent dissociation of the MHC complexes. To determine the yield of the exchange reaction, an ELISA was performed based on the detection of the light chain (β2m) of stabilized MHC complexes. The assay was performed as generally described in Rodenko et al. (Rodenko et al., 2006).
96 well MAXISorp plates (NUNC) were coated over night with 2 ug/ml streptavidin in PBS at room temperature, washed 4× and blocked for 1 h at 37° C. in 2% BSA containing blocking buffer. Refolded HLA-A*02:01/MLA-001 monomers served as standards, covering the range of 15-500 ng/ml. Peptide-MHC monomers of the UV-exchange reaction were diluted 100 fold in blocking buffer. Samples were incubated for 1 h at 37° C., washed four times, incubated with 2 ug/ml HRP conjugated anti-β2m for 1 h at 37° C., washed again and detected with TMB solution that is stopped with […]. Absorption was measured at 450 nm. Candidate peptides that show a high exchange yield (preferably higher than 50%, most preferred higher than 75%) are generally preferred for a generation and production of antibodies or fragments thereof, and/or T cell receptors or fragments thereof, as they show sufficient avidity to the MHC molecules and prevent dissociation of the MHC complexes.
In the case of “84 (YLMDEGAHL; listed as Homo sapiens) [compound 84]”, the “Peptide exchange (MHC class I binding score)” value (shortened to “Peptide exchange”) is “++ (≥20% = ++)”.

Take “4 (FLSQDIITV; listed as Homo sapiens) [compound 4]”: the “Peptide exchange” value was “+++ (≥50 = +++)”.

Turning to “52 (SILDAVQRV; listed as Homo sapiens) [compound 52]”, the “Peptide exchange” value is “++ (≥20% = ++)”.

As to “41 (GLLKTLQKL; listed as Homo sapiens) [compound 41]”, the “Peptide exchange” value was “++ (≥20% = ++)”.

As to “62 (VLAGPAFLVQL; listed as Homo sapiens) [compound 62]”, the “Peptide exchange” value is “+++ (≥50 = +++)”.

With “5 (YLYPNLTRL; listed as Homo sapiens) [compound 5]”, the “Peptide exchange” value was “++ (≥20% = ++)”.

Regarding “71 (ALDGHLYAV; listed as Homo sapiens) [compound 71]”, the “Peptide exchange” value is reported as “+++ (≥50 = +++)”.

“40 (YIQEHLLQI; listed as Homo sapiens) [compound 40]”: the “Peptide exchange” value is “+++ (≥50 = +++)”.

Take “96 (TLAETLVNL; listed as Homo sapiens) [compound 96]”: the “Peptide exchange” value was “+++ (≥50 = +++)”.

Take “91 (MLLSSLVSL; listed as Homo sapiens) [compound 91]”: the “Peptide exchange” value is given as “++ (≥20% = ++)”.

Take “45 (ALLGIPLTL; listed as Homo sapiens) [compound 45]”: the “Peptide exchange” value was “+++ (≥50 = +++)”.

Turning to “113 (SLFDWNVKL; listed as Homo sapiens) [compound 113]”, the “Peptide exchange” value was “+++ (≥50 = +++)”.

Turning to “75 (FLIKSINLV; listed as Homo sapiens) [compound 75]”, the “Peptide exchange” value was “+++ (≥50 = +++)”.

Consider “73 (GLDGIPFTV; listed as Homo sapiens) [compound 73]”, for which the “Peptide exchange” value was “+++ (≥50 = +++)”.

As to “30 (QLFYTKIFL; listed as Homo sapiens) [compound 30]”, the “Peptide exchange” value was “++ (≥20% = ++)”.

“22 (FLSPPLPSV; listed as Homo sapiens) [compound 22]”: the “Peptide exchange” value was “+++ (≥50 = +++)”.

“93 (GVMAGDIYSV; listed as Homo sapiens) [compound 93]”: the “Peptide exchange” value is reported as “++++ (≥75% = ++++)”.

For “86 (GLLQGKLALL; listed as Homo sapiens) [compound 86]”, the “Peptide exchange” value is recorded as “++ (≥20% = ++)”.

As to “109 (YLWSRVEKL; listed as Homo sapiens) [compound 109]”, the “Peptide exchange” value is reported as “++++ (≥75% = ++++)”.

Take “8 (GLASFKSFL; listed as Homo sapiens) [compound 8]”: the “Peptide exchange” value was “++ (≥20% = ++)”.

With “89 (SLLLAVTEV; listed as Homo sapiens) [compound 89]”, the “Peptide exchange” value is reported as “++ (≥20% = ++)”.

With “21 (RLIQGDQILSV; listed as Homo sapiens) [compound 21]”, the “Peptide exchange” value was “++ (≥20% = ++)”.

Take “77 (SLIKHKIML; listed as Homo sapiens) [compound 77]”: the “Peptide exchange” value is “++ (≥20% = ++)”.

Consider “58 (FLVDFEQSHL; listed as Homo sapiens) [compound 58]”, for which the “Peptide exchange” value is “++++ (≥75% = ++++)”.

Take “67 (LLDVLAPLV; listed as Homo sapiens) [compound 67]”: the “Peptide exchange” value is given as “++ (≥20% = ++)”.

For the substance “43 (YLKDELDEL; listed as Homo sapiens) [compound 43]”, the “Peptide exchange” value was “+++ (≥50 = +++)”.

For the substance “72 (YSLEKVFGI; listed as Homo sapiens) [compound 72]”, the “Peptide exchange” value is “++ (≥20% = ++)”.

“27 (SLSDLLVSL; listed as Homo sapiens) [compound 27]”: the “Peptide exchange” value is recorded as “+++ (≥50 = +++)”.

As to “35 (VLHSLQTQL; listed as Homo sapiens) [compound 35]”, the “Peptide exchange” value is on record as “++ (≥20% = ++)”.

For the substance “19 (LLDPGSLQL; listed as Homo sapiens) [compound 19]”, the “Peptide exchange” value is on record as “++ (≥20% = ++)”.

Consider “14 (ALLTETIFL; listed as Homo sapiens) [compound 14]”, for which the “Peptide exchange” value is “++ (≥20% = ++)”.

For “17 (ILAQQVHAL; listed as Homo sapiens) [compound 17]”, the “Peptide exchange” value is “+++ (≥50 = +++)”.

With “33 (FIADVVEKI; listed as Homo sapiens) [compound 33]”, the “Peptide exchange” value is recorded as “++ (≥20% = ++)”.

For “68 (YVLTQPPSV; listed as Homo sapiens) [compound 68]”, the “Peptide exchange” value is recorded as “++ (≥20% = ++)”.

For the substance “25 (LLVPAHLVAA; listed as Homo sapiens) [compound 25]”, the “Peptide exchange” value is “++ (≥20% = ++)”.

On to “55 (YLALILPVL; listed as Homo sapiens) [compound 55]”, for which the “Peptide exchange” value is reported as “++ (≥20% = ++)”.

“50 (SLSDHIVLL; listed as Homo sapiens) [compound 50]”: the “Peptide exchange” value is listed as “++ (≥20% = ++)”.

Turning to “101 (HIYDKAFITV; listed as Homo sapiens) [compound 101]”, the “Peptide exchange” value is listed as “++ (≥20% = ++)”.

With “10 (KLLQNNYGL; listed as Homo sapiens) [compound 10]”, the “Peptide exchange” value is “++ (≥20% = ++)”.

Take “92 (FLFRDILEL; listed as Homo sapiens) [compound 92]”: the “Peptide exchange” value is “+++ (≥50 = +++)”.

On to “28 (FIADLVVGL; listed as Homo sapiens) [compound 28]”, for which the “Peptide exchange” value is recorded as “++ (≥20% = ++)”.

As to “66 (TLLKTIIKV; listed as Homo sapiens) [compound 66]”, the “Peptide exchange” value is on record as “++ (≥20% = ++)”.

Take “64 (LLAASVALA; listed as Homo sapiens) [compound 64]”: the “Peptide exchange” value was “++ (≥20% = ++)”.

Take “56 (ILMDFSNSM; listed as Homo sapiens) [compound 56]”: the “Peptide exchange” value is listed as “+++ (≥50 = +++)”.

As for “44 (ALFSFVTAL; listed as Homo sapiens) [compound 44]”, the “Peptide exchange” value is reported as “+++ (≥50 = +++)”.

Turning to “111 (TLLETEMLL; listed as Homo sapiens) [compound 111]”, the “Peptide exchange” value is “++ (≥20% = ++)”.

Take “53 (FLLEIRQTL; listed as Homo sapiens) [compound 53]”: the “Peptide exchange” value was “++ (≥20% = ++)”.

“94 (ILHHKVYDL; listed as Homo sapiens) [compound 94]”: the “Peptide exchange” value was “++ (≥20% = ++)”.

Regarding “65 (IIYGGSVTGA; listed as Homo sapiens) [compound 65]”, the “Peptide exchange” value is “++ (≥20% = ++)”.

For “24 (FTLGTTVFL; listed as Homo sapiens) [compound 24]”, the “Peptide exchange” value is recorded as “+++ (≥50 = +++)”.

In the case of “47 (TLAEVRAVQEI; listed as Homo sapiens) [compound 47]”, the “Peptide exchange” value is “+++ (≥50 = +++)”.

With “69 (ILADLLPSL; listed as Homo sapiens) [compound 69]”, the “Peptide exchange” value was “++ (≥20% = ++)”.

As for “74 (GLFHKQVTV; listed as Homo sapiens) [compound 74]”, the “Peptide exchange” value is recorded as “+++ (≥50 = +++)”.

On to “97 (TLISELVQA; listed as Homo sapiens) [compound 97]”, for which the “Peptide exchange” value was “++ (≥20% = ++)”.

In the case of “23 (YIQEVVQYI; listed as Homo sapiens) [compound 23]”, the “Peptide exchange” value is given as “+++ (≥50 = +++)”.

As to “34 (ELNNQNFYL; listed as Homo sapiens) [compound 34]”, the “Peptide exchange” value is “+++ (≥50 = +++)”.

For “104 (ALFEGVVRQI; listed as Homo sapiens) [compound 104]”, the “Peptide exchange” value is reported as “+++ (≥50 = +++)”.

Consider “114 (ALAVNISAA; listed as Homo sapiens) [compound 114]”, for which the “Peptide exchange” value is “+++ (≥50 = +++)”.

Turning to “57 (SLQKEILYL; listed as Homo sapiens) [compound 57]”, the “Peptide exchange” value is “++ (≥20% = ++)”.

“36 (SLFGKKYIL; listed as Homo sapiens) [compound 36]”: the “Peptide exchange” value is given as “++ (≥20% = ++)”.

Take “102 (LLFDVHTTL; listed as Homo sapiens) [compound 102]”: the “Peptide exchange” value is “+++ (≥50 = +++)”.

On to “112 (LLFDHLEPIEL; listed as Homo sapiens) [compound 112]”, for which the “Peptide exchange” value is “+++ (≥50 = +++)”.
